Patent publication US20020197617, “Aptamers as reagents for high throughput screening” (GILEAD SCIENCES, INC., published 2002)

T1: Wheat germ agglutinin (WGA) (Triticum vulgare, UniProt P10968 P10968:27-197)
T1 sequence: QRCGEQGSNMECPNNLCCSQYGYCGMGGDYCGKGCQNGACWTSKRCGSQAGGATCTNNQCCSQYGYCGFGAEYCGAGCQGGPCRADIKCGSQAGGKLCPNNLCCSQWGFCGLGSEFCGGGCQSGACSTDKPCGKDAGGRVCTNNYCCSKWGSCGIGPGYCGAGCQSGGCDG

B1: 20ta (ssDNA)
DNA: CGGGCGCGTTCTTCGTGGTTACTTTTAGTCCCG
B2: 11.20 (ssRNA)
RNA: GGGAAAAGCGAAUCAUACACAAGAUUGGUCGUACUGGACAGAGCCGUGGUAGAGGGAUUGGGACAAAGUGUCAGCUCCGCCAGAGACCAACCGAGAA
modifications: 2'-NH2 pyrimidines

Legend:
[1] = molecular target: PDGF-BB (platelet-derived growth factor BB) (Homo sapiens, UniProt P01127 P01127:82-190); assay: 33-mer described previously (US 5,723,594); measurement conditions not stated; settings: tags: R&D Systems, carrier free lyophilized; chain copies: 2 (inferred, homodimer)
Chain of PDGF-BB (platelet-derived growth factor BB) (P01127 82-190, one chain of several): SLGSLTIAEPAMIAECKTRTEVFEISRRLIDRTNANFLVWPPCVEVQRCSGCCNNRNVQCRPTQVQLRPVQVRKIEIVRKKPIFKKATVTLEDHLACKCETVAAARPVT

[2] = molecular target: T1, Wheat germ agglutinin (WGA); assay: filter; 10 nM aptamer and 10 nM WGA, HBSMC pH 7.4, room temperature; displaced by (GlcNAc)2, (GlcNAc)3 and (GlcNAc)4, not by GlcNAc; settings: tags: EY Laboratories; chain copies: 2; label: 5'-32P
Protocol: Small molecule oligosaccharides were screened for their ability to compete with WGA aptamer 11.20 for binding to wheat germ agglutinin protein. The small molecule (or cold 11.20) competitors at varying concentrations were mixed with the 5′-32P end-labeled 11.20 ligand at room temperature. Then WGA was added to the mixture and allowed to equilibrate for 60 minutes at room temperature. The competition mixtures (90 μL volume) all had 32P end-labeled 11.20 at 10 nM, WGA at 10 nM and were in 25 mM Hepes, 137 mM NaCl, 2.7 mM KCl, 1 mM MgCl₂, 1 mM CaCl₂, 0.067% human serum albumin (HSA), at pH 7.4 (HBSMC). Aptamer bound to WGA was separated from free aptamer by filtration through pre-washed […] nitrocellulose membrane filters. Filters were washed with 5 mL HBSMC at room temperature. The filters were placed in tubes with scintillant and the radioactivity counted to quantitate the fraction of 32P end-labeled 11.20 bound at each competitor concentration.

| Binder | Kd [1] | binding result [2] |
| --- | --- | --- |
| B1 | 0.05 nM |  |
| B2 |  | binds |
